Data on two proteins can be found in article PMC8791944, “GLUT3 inhibitor discovery through in silico ligand screening and in vivo validation in eukaryotic expression systems” (Scientific Reports, 2022).

The Km is the concentration of substrate that gives half-maximal velocity.

Substrate in data set [1]: OC[C@H]1OC(O)[C@H](O)[C@@H](O)[C@@H]1O
As to the kind of experiment: cells, lysate or membranes. Type of data set: cell-based, human. Conditions: other: wild-type GLUT3 in hxt^0 cells.

Substrate in data set [2]: OC[C@H]1OC(O)[C@H](O)[C@@H](O)[C@@H]1O
As to the kind of experiment: cells, lysate or membranes. To be noted: other: GLUT3S66Y in hxt^0 cells.

B1: GLUT3 (Homo sapiens) (protein)
chain: MGTQKVTPALIFAITVATIGSFQFGYNTGVINAPEKIIKEFINKTLTDKGNAPPSEVLLTSLWSLSVAIFSVGGMIGSFSVGLFVNRFGRRNSMLIVNLLAVTGGCFMGLCKVAKSVEMLILGRLVIGLFCGLCTGFVPMYIGEISPTALRGAFGTLNQLGIVVGILVAQIFGLEFILGSEELWPLLLGFTILPAILQSAALPFCPESPRFLLINRKEEENAKQILQRLWGTQDVSQDIQEMKDESARMSQEKQVTVLELFRVSSYRQPIIISIVLQLSQQLSGINAVFYYSTGIFKDAGVQEPIYATIGAGVVNTIFTVVSLFLVERAGRRTLHMIGLGGMAFCSTLMTVSLLLKDNYNGMSFVCIGAILVFVAFFEIGPGPIPWFIVAELFSQGPRPAAMAVAGCSNWTSNFLVGLLFPSAAHYLGAYVFIIFTGFLITFLAFTFFKVPETRGRTFEDITRAFEGQAHGADRSGKDGVMEMNSIEPAKETTTNV
notes: expressed in transfected cells; host or cells: Saccharomyces cerevisiae hxt0 strain EBY.S7 (fgy1)
As to B1, in data set [1], the Km was 3110 ± 420 µM.

B2: GLUT3S66Y (Homo sapiens; S66Y) (protein)
chain: MGTQKVTPALIFAITVATIGSFQFGYNTGVINAPEKIIKEFINKTLTDKGNAPPSEVLLTSLWSLYVAIFSVGGMIGSFSVGLFVNRFGRRNSMLIVNLLAVTGGCFMGLCKVAKSVEMLILGRLVIGLFCGLCTGFVPMYIGEISPTALRGAFGTLNQLGIVVGILVAQIFGLEFILGSEELWPLLLGFTILPAILQSAALPFCPESPRFLLINRKEEENAKQILQRLWGTQDVSQDIQEMKDESARMSQEKQVTVLELFRVSSYRQPIIISIVLQLSQQLSGINAVFYYSTGIFKDAGVQEPIYATIGAGVVNTIFTVVSLFLVERAGRRTLHMIGLGGMAFCSTLMTVSLLLKDNYNGMSFVCIGAILVFVAFFEIGPGPIPWFIVAELFSQGPRPAAMAVAGCSNWTSNFLVGLLFPSAAHYLGAYVFIIFTGFLITFLAFTFFKVPETRGRTFEDITRAFEGQAHGADRSGKDGVMEMNSIEPAKETTTNV
As to B2, the Km in data set [2] was 1420 ± 170 µM.
